T1: GST-FLJ 10324 PDZ domain 1 [GST: P08515]
T1 chain: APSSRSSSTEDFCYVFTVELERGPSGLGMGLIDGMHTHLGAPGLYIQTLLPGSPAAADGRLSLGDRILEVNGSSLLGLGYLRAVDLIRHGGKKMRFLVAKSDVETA

T2: GST-TIP1 PDZ domain 1 (Table 9 insert) (Homo sapiens (Human)), O14907
T2 chain: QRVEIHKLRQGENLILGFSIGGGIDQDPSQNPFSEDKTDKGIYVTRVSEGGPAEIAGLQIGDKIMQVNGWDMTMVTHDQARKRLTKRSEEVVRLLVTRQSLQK

T3: GST-KIAA0807(S) PDZ domain 1 (Homo sapiens (Human)), Q6P0Q8
T3 chain: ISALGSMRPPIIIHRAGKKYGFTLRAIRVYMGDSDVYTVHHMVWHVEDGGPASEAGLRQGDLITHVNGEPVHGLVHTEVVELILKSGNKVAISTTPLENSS

T4: GST-HEMBA 1003117 PDZ domain 1 (Homo sapiens (Human)), Q96JH8
T4 chain: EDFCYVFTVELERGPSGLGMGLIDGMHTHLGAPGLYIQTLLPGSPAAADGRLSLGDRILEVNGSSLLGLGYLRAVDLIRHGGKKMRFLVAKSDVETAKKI

T5: GST-INADL PDZ domain 3 (Homo sapiens (Human)), Q8NI35
T5 chain: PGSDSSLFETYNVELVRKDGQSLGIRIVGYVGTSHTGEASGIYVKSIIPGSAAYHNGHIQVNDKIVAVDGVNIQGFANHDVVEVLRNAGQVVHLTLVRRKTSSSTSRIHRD

T6: GST-Outer Membrane PDZ domain 1 (Homo sapiens (Human)), P57105
T6 chain: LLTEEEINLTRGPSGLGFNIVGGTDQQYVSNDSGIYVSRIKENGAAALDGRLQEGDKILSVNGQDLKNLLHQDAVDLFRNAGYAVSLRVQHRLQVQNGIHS

T7: GST-KIAA0382 PDZ domain 1 (Canis lupus familiaris (Dog) (Canis familiaris)), A0A8I3
T7 chain: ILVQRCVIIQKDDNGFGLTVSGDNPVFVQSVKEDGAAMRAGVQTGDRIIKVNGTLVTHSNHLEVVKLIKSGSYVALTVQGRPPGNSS

T8: GST-APXL-1 PDZ domain 1 (Homo sapiens (Human)), Q13796
T8 chain: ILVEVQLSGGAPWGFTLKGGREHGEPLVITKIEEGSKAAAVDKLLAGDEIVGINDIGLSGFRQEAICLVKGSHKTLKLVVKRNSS

T9: GST-FLJ00011 PDZ domain 1 (Homo sapiens (Human)), Q9H5P4
T9 chain: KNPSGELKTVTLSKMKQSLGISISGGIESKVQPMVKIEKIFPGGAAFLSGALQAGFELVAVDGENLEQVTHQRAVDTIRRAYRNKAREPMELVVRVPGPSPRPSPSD

T10: GST-LIM Mystique PDZ domain 1 (Homo sapiens (Human)), Q96JY6
T10 chain: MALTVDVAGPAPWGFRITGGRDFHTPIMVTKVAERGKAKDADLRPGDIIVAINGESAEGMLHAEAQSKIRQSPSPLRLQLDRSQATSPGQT

T11: GST-Syntrophin gamma 1 PDZ domain 1 (Homo sapiens (Human)), Q9NSN8
T11 chain: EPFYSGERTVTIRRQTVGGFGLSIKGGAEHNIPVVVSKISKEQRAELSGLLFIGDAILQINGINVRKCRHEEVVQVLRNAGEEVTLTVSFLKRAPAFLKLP

T12: GST-AIPC PDZ domain 1 (Homo sapiens (Human)), O15018
T12 chain: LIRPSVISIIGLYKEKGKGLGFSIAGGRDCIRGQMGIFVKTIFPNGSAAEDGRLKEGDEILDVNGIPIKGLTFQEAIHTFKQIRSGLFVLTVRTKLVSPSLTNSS

T13: GST-MINT1 PDZ domain 2 (Mus musculus (Mouse)), B2RUJ5
T13 chain: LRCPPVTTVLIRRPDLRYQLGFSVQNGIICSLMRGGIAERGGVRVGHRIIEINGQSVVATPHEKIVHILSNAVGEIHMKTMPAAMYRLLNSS

T14: GST-MINT1 PDZ domains 1, 2, Q02410
T14 chain: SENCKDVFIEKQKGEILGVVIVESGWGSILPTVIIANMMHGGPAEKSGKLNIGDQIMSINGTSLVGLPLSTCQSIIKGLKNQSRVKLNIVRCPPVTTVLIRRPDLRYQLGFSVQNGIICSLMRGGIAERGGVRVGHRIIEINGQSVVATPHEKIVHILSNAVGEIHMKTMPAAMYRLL

T15: GST-LIM-RIL PDZ domain 1 (Homo sapiens (Human)), P50479
T15 chain: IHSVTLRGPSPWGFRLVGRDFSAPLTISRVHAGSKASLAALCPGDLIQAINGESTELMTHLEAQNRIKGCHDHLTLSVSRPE

B1: TAX (peptide)
peptide: QISPGGLEPPSEKHFRETEV
modifications: not checked
B2: catenin - delta 2 (peptide)
peptide: PYSELNYETSHYPASPDSWV
modifications: not checked
B3: ephrin B2 (peptide)
peptide: ILNSIQVMRAQMNQIQSVEV
modifications: not checked
B4: KIA 1481 (peptide)
peptide: PIPAGGCTFSGIFPTLTSPL
modifications: not checked
B5: a-actinin 2 (peptide)
peptide: VPGALDYAAFSSALYGESDL
modifications: not checked
B6: NMDA Glutamate Receptor 2C (cysteine-free) (peptide)
peptide: TQGFPGPATWRRISSLESEV
modifications: not checked

Target: T1, GST-FLJ 10324 PDZ domain 1 [GST: P08515]
Assay: G' assay
Note: key of the grades not given here.

Binder | Classification
B1 | 1 A450 class
B2 | 3 A450 class
B3 | 2 A450 class

Target: T2, GST-TIP1 PDZ domain 1 (Table 9 insert) …
Assay: G' assay

Binder | Classification
B4 | 2 A450 class
B5 | 5 A450 class
B1 | 5 A450 class
B2 | 3 A450 class
B6 | 5 A450 class
B3 | 2 A450 class

Target: T3, GST-KIAA0807(S) PDZ domain 1 (Homo …)
Assay: G' assay

Binder | Classification
B4 | 5 A450 class
B5 | 5 A450 class
B1 | 5 A450 class
B2 | 3 A450 class
B6 | 5 A450 class
B3 | 2 A450 class

Target: T4, GST-HEMBA 1003117 PDZ domain 1 (Homo …)
Assay: G' assay

Binder | Classification
B2 | 1 A450 class
B3 | 2 A450 class

Target: T5, GST-INADL PDZ domain 3 (Homo sapiens …)
Assay: G' assay

Binder | Classification
B5 | 1 A450 class
B1 | 1 A450 class
B6 | 2 A450 class
B3 | 2 A450 class

Target: T6, GST-Outer Membrane PDZ domain 1 (Homo …)
Assay: G' assay

Binder | Classification
B5 | 1 A450 class
B1 | 5 A450 class
B2 | 5 A450 class
B6 | 5 A450 class

Target: GST-KIAA1634 PDZ domain 5 (Homo sapiens (Human)), Q5TCQ9
Assay: G' assay

Sequence of GST-KIAA1634 PDZ domain 5 (Homo sapiens (Human)), Q5TCQ9 (Q5TCQ9 other isoform, or with tags, fused parts or gaps): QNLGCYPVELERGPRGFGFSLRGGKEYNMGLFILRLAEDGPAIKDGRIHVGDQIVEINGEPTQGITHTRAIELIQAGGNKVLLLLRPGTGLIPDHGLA

Binder | Classification
B4 | 1 A450 class
B5 | 5 A450 class
B1 | 1 A450 class
B2 | 3 A450 class
B6 | 1 A450 class

Target: T7, GST-KIAA0382 PDZ domain 1 (Canis lupus …)
Assay: G' assay

Binder | Classification
B4 | 5 A450 class
B6 | 1 A450 class
B3 | 2 A450 class

Target: T8, GST-APXL-1 PDZ domain 1 (Homo sapiens …)
Assay: G' assay

Binder | Classification
B4 | 5 A450 class
B5 | 5 A450 class
B6 | 1 A450 class
B3 | 1 A450 class

Target: T9, GST-FLJ00011 PDZ domain 1 (Homo sapiens …)
Assay: G' assay

Binder | Classification
B4 | 2 A450 class
B1 | 1 A450 class
B6 | 2 A450 class
B3 | 2 A450 class

Target: T10, GST-LIM Mystique PDZ domain 1 (Homo …)
Assay: G' assay

Binder | Classification
B5 | 5 A450 class
B1 | 1 A450 class
B2 | 5 A450 class
B6 | 4 A450 class
B3 | 1 A450 class

Target: T11, GST-Syntrophin gamma 1 PDZ domain 1 …
Assay: G' assay

Binder | Classification
B5 | 1 A450 class
B1 | 5 A450 class
B2 | 1 A450 class
B6 | 4 A450 class
B3 | 2 A450 class

Target: GST-BAI-1 Associated Protein PDZ domain 2 (Mus musculus (Mouse)), Q6RHR9
Assay: G' assay

Sequence of GST-BAI-1 Associated Protein PDZ domain 2 (Mus musculus (Mouse)), Q6RHR9 (Q6RHR9 455-558): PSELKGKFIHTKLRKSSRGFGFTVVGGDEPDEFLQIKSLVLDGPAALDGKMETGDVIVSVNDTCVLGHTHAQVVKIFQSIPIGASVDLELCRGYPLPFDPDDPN

Binder | Classification
B4 | 2 A450 class
B5 | 1 A450 class
B1 | 5 A450 class
B6 | 4 A450 class

Target: GST-BAI-1 Associated Protein PDZ domain 6 (Homo sapiens (Human)), Q96QZ7
Assay: G' assay

Sequence of GST-BAI-1 Associated Protein PDZ domain 6 (Homo sapiens (Human)), Q96QZ7 (Q96QZ7 1143-1233): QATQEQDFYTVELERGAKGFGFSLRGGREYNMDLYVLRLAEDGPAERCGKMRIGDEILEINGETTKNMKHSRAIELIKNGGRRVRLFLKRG

Binder | Classification
B4 | 2 A450 class
B5 | 5 A450 class
B1 | 1 A450 class
B6 | 2 A450 class
B3 | 2 A450 class

Target: GST-PAR3 PDZ domain 3 (Homo sapiens (Human)), Q8TEW0
Assay: G' assay

Sequence of GST-PAR3 PDZ domain 3 (Homo sapiens (Human)), Q8TEW0 (Q8TEW0 579-681): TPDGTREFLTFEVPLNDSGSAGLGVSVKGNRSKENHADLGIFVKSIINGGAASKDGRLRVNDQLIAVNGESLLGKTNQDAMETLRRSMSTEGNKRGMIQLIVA

Binder | Classification
B5 | 1 A450 class
B2 | 1 A450 class
B3 | 2 A450 class

Target: T12, GST-AIPC PDZ domain 1 (Homo sapiens …)
Assay: G' assay

Binder | Classification
B5 | 2 A450 class
B1 | 1 A450 class
B2 | 2 A450 class
B6 | 3 A450 class
B3 | 2 A450 class

Target: T13, GST-MINT1 PDZ domain 2 (Mus musculus …)
Assay: G' assay

Binder | Classification
B4 | 3 A450 class
B5 | 1 A450 class
B2 | 3 A450 class
B6 | 1 A450 class
B3 | 3 A450 class

Target: T14, GST-MINT1 PDZ domains 1, 2, Q02410
Assay: G' assay

Binder | Classification
B4 | 3 A450 class
B5 | 1 A450 class
B2 | 5 A450 class
B6 | 1 A450 class
B3 | 2 A450 class

Target: GST-Atrophin-1 Interacting Protein PDZ domain 5 (Rattus norvegicus (Rat)), O88382
Assay: G' assay

Sequence of GST-Atrophin-1 Interacting Protein PDZ domain 5 (Rattus norvegicus (Rat)), O88382 (O88382 1128-1225): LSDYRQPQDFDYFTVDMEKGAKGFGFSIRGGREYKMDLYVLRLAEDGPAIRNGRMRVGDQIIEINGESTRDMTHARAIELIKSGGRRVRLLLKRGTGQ

Binder | Classification
B5 | 5 A450 class
B1 | 3 A450 class
B2 | 5 A450 class
B6 | 5 A450 class
B3 | 2 A450 class

Target: T15, GST-LIM-RIL PDZ domain 1 (Homo sapiens …)
Assay: G' assay

Binder | Classification
B5 | 5 A450 class
B1 | 1 A450 class
B2 | 2 A450 class
B6 | 5 A450 class
B3 | 2 A450 class

Source: US20050282743A1, “Molecular interactions in cells” (Arbor Vita Corporation, priority 2001, published 2005)
